Assay results reported in paper PMC3899043, “Expression Pattern and Biochemical Properties of Zebrafish N-Acetylglutamate Synthase” (PLoS ONE, 2014).
Read-outs that look alike come from different tables or passages of the source. One block for each molecule: values may come before it.

Legend:
zfNAGS-M = target: T1, zfNAGS-M (Danio rerio, UniProt E7FCP8); test: enzymatic activity assay, Michaelis-Menten fit; format: biochemical; conditions: no L-arginine
T1 construct: gene nags; mature form, predicted mitochondrial targeting signal removed; N-terminus at Met47 of preprotein; N-terminal polyhistidine tag kept (pET15b); E. coli C41(DE3); predicted 55,498 Da; tetramer
T1 sequence (E7FCP8 46-527): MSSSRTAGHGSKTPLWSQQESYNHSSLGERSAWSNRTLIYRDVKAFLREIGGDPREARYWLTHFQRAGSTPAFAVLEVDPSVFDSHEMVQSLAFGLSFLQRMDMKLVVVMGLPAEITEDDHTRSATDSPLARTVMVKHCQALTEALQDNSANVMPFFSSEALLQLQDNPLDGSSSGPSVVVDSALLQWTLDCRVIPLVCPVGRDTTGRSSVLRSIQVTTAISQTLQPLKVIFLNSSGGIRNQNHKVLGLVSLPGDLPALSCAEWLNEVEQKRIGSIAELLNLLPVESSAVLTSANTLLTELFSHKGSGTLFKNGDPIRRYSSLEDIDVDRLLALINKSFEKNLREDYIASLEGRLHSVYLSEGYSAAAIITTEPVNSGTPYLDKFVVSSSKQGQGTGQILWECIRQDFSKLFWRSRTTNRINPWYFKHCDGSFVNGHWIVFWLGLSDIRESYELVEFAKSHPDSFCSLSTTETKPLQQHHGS
Source text: enzymatic activity assay, Michaelis-Menten fit on zfNAGS-M

zfNAGS-C = target: T2, zfNAGS-C (Danio rerio, UniProt E7FCP8); test: thermofluor with SYPRO Orange; format: binding; conditions: L-arginine up to 10 mM; no substrates; pH 7.5 phosphate
T2 construct: gene nags; conserved segment (AAK and NAT domains), targeting signal and variable segment removed; N-terminus at Gly73 of preprotein; N-terminal polyhistidine tag kept (pET15b); E. coli C41(DE3); predicted 52,752 Da
T2 sequence (E7FCP8 73-527): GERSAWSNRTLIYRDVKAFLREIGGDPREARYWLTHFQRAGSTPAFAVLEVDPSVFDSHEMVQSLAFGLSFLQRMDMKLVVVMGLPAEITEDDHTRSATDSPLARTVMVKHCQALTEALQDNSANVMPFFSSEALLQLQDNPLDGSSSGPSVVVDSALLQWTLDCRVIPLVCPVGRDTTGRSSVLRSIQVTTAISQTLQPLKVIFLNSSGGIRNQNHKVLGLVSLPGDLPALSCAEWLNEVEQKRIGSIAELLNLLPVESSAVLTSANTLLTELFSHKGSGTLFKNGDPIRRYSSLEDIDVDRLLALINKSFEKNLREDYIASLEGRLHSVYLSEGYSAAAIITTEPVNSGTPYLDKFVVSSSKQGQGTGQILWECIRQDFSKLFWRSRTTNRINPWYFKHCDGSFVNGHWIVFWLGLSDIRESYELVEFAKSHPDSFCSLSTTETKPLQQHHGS

[1] = target: mature zebrafish N-acetylglutamate synthase (zfNAGS-M) (zebrafish (Danio rerio)) (UniProt E7FCP8); test: SEC; analytical gel chromatography, Superdex 200 HR 10/30, room temperature, 50 mM potassium phosphate pH 7.5, 300 mM KCl, 20% glycerol, 10 mM beta-mercaptoethanol, 0.006% Triton X-100, no L-arginine; 100 ul loaded at 0.5-1.3 mg/ml (zfNAGS-M) or 0.5-2.0 mg/ml (zfNAGS-C)
[2] = substrate: N[C@@H](CCC(=O)O)C(=O)O; test: enzymatic activity assay, Michaelis-Menten fit; format: biochemical, Danio rerio; conditions: 4 mM AcCoA; no L-arginine
Source text: (§1) enzymatic activity assay, Michaelis-Menten fit on zfNAGS-C

[3] = substrate: CC(=O)SCCNC(=O)CCNC(=O)[C@H](O)C(C)(C)COP(=O)(O)OP(=O)(O)OC[C@H]1O[C@@H](n2cnc3c(N)ncnc32)[C@H](O)[C@@H]1OP(=O)(O)O; test: enzymatic activity assay, Michaelis-Menten fit; format: biochemical, Danio rerio; conditions: 15 mM L-glutamate; no L-arginine
Source text: as §1

Km (zfNAGS-M; 15 mM L-glutamate, read-out: AcCoA / Km ^app): 220 ± 30 µM
Molecule: CC(=O)SCCNC(=O)CCNC(=O)[C@H](O)C(C)(C)COP(=O)(O)OP(=O)(O)OC[C@H]1O[C@@H](n2cnc3c(N)ncnc32)[C@H](O)[C@@H]1OP(=O)(O)O [AcCoA]

Molecule: N=C(N)NCCC[C@H](N)C(=O)O [L-arginine]
thermofluor with SYPRO Orange (zfNAGS-C): Addition of L-arginine to both zfNAGS-M and zfNAGS-C resulted in changes

Km (zfNAGS-M; 4 mM AcCoA, read-out: Glutamate / Km ^app): 1130 ± 130 µM
Molecule: N[C@@H](CCC(=O)O)C(=O)O [L-glutamate]

stoichiometry N [1]: 4
Molecule: mature zebrafish N-acetylglutamate synthase (zfNAGS-M) (from UniProt E7FCP8 47-527) (enzyme)

B1: zfNAGS-C (Danio rerio) (protein)
chain: GERSAWSNRTLIYRDVKAFLREIGGDPREARYWLTHFQRAGSTPAFAVLEVDPSVFDSHEMVQSLAFGLSFLQRMDMKLVVVMGLPAEITEDDHTRSATDSPLARTVMVKHCQALTEALQDNSANVMPFFSSEALLQLQDNPLDGSSSGPSVVVDSALLQWTLDCRVIPLVCPVGRDTTGRSSVLRSIQVTTAISQTLQPLKVIFLNSSGGIRNQNHKVLGLVSLPGDLPALSCAEWLNEVEQKRIGSIAELLNLLPVESSAVLTSANTLLTELFSHKGSGTLFKNGDPIRRYSSLEDIDVDRLLALINKSFEKNLREDYIASLEGRLHSVYLSEGYSAAAIITTEPVNSGTPYLDKFVVSSSKQGQGTGQILWECIRQDFSKLFWRSRTTNRINPWYFKHCDGSFVNGHWIVFWLGLSDIRESYELVEFAKSHPDSFCSLSTTETKPLQQHHGS
notes: conserved segment (AAK and NAT domains), targeting signal and variable segment removed; N-terminus at Gly73 of preprotein; N-terminal polyhistidine tag kept (pET15b); E. coli C41(DE3); predicted 52,752 Da
Km [2]: 1120 ± 210 µM | Vmax [2]: 39.5 µmol/min/mg | Km [3]: 230 ± 60 µM | Vmax [3]: 32.2 µmol/min/mg
